Among the data in publication PMC5543139 are Kd values, retold here.

In the data set the target is glucagon receptor on CHO-GCGR cells (human) (UniProt P47871). The experiment in a line: flow cytometry on live cells. To be noted: D-PBS pH 7.4, 5 mM MgCl2, 4.5 g/L glucose, 0.1 mg/mL yeast tRNA, 1 mg/L BSA; 4 C, 1 h (45 min in Results for Kd).
glucagon receptor on CHO-GCGR cells (human), sequence (P47871 26-477): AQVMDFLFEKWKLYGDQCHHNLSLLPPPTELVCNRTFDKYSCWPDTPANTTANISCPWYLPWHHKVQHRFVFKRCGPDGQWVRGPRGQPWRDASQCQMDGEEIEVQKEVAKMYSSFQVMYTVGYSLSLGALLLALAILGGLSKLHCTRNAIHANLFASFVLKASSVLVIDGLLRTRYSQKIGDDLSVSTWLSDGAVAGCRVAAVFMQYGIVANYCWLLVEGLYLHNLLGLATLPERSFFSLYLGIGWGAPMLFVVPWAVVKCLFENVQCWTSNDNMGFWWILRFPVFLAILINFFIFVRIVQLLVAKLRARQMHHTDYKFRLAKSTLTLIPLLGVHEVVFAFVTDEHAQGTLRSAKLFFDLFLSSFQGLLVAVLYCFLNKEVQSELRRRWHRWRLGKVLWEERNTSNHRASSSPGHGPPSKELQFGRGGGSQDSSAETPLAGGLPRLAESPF

Consider “ATCCAGAGTGACGCAGCAGATAAGTAGGTATCCGTTTGAAAAACTTTTCTGACCGTCCGACTATGGACACGGTGGCTTAGT [GR-3]”, for which the Kd (usually the constant that tells how readily two partners part at equilibrium) came out at 52.7 nM.
